{
  "source": "paper PMC6821130",
  "key": {"[1]": {"molecular_target": "6XHis-PilT (Vibrio cholerae)", "assay": "negative-stain electron microscopy"}, "[2]": {"molecular_target": "PilT^K136A (full length, fused to the T18 or T25 fragment of adenylate cyclase)", "assay": "BACTH Miller assay", "details": "read off a plot"}, "[3]": {"molecular_target": "PilC (full length, fused to the T18 or T25 fragment of adenylate cyclase) (UniProt Q9X4G9)", "sequence (Q9X4G9 whole entry, the tested form may be a part)": "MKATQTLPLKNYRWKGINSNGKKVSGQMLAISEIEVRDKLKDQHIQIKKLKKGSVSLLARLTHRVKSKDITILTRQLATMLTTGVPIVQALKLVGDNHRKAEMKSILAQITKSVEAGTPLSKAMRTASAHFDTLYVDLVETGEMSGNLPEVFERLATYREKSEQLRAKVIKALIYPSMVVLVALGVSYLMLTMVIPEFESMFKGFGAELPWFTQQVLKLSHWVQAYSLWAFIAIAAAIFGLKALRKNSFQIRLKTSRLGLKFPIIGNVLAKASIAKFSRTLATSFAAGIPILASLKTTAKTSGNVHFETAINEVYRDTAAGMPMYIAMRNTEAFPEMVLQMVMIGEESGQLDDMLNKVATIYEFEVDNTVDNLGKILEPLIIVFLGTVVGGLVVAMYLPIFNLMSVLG", "assay": "BACTH Miller assay", "details": "read off a plot"}, "[4]": {"molecular_target": "PilT (full length, fused to the T18 or T25 fragment of adenylate cyclase)", "assay": "BACTH Miller assay", "details": "read off a plot"}, "[5]": {"molecular_target": "PilU (full length, fused to the T18 or T25 fragment of adenylate cyclase)", "assay": "BACTH Miller assay", "details": "read off a plot"}, "[6]": {"molecular_target": "PilU^K134A (full length, fused to the T18 or T25 fragment of adenylate cyclase)", "assay": "BACTH Miller assay", "details": "parent: est. 180; read off a plot"}, "[7]": {"molecular_target": "6xHis-PilT^K136A (Vibrio cholerae)", "assay": "negative-stain electron microscopy"}, "[8]": {"molecular_target": "6XHis-PilU (Vibrio cholerae)", "assay": "negative-stain electron microscopy"}, "[9]": {"molecular_target": "6xHis-PilU^K134A (Vibrio cholerae)", "assay": "negative-stain electron microscopy"}},
  "note": "“And” between values parts separate entries of the source, which are not always exact repeats. Identical values can stand only once.",
  "data": [
    {"substance": "6XHis-PilT (enzyme)", "values": [
      {"measurement": "stoichiometry N", "setting": "[1]", "result": 6}
    ]},
    {"substance": "m2; m1 PilU:K134A; PilT:K136A", "values": [
      {"measurement": "response", "setting": "[2]; parent: est. 65", "result": 11, "unit": "Miller Units"},
      {"measurement": "response", "setting": "[2]; parent: est. 110", "result": 48, "unit": "Miller Units"}
    ]},
    {"substance": "PilU (full length, fused to the T18 or T25 fragment of adenylate cyclase) K134A", "values": [
      {"measurement": "response", "setting": "[3]; parent: est. 55", "result": 75, "unit": "Miller Units"},
      {"measurement": "response", "setting": "[3]; parent: est. 100", "result": 110, "unit": "Miller Units"},
      {"measurement": "response", "setting": "[4]; parent: est. 65", "result": 85, "unit": "Miller Units"},
      {"measurement": "response", "setting": "[4]; parent: est. 110", "result": 78, "unit": "Miller Units"},
      {"measurement": "response", "setting": "[5]; parent: est. 180", "result": "180 Miller Units and 220 Miller Units"},
      {"measurement": "response", "setting": "[6]", "result": 140, "unit": "Miller Units"}
    ]},
    {"substance": "6xHis-PilT^K136A (enzyme)", "values": [
      {"measurement": "stoichiometry N", "setting": "[7]", "result": 6}
    ]},
    {"substance": "PilT (full length, fused to the T18 or T25 fragment of adenylate cyclase) K136A", "values": [
      {"measurement": "response", "setting": "[3]; parent: est. 90", "result": 80, "unit": "Miller Units"},
      {"measurement": "response", "setting": "[3]; parent: est. 120", "result": 110, "unit": "Miller Units"},
      {"measurement": "response", "setting": "[4]; parent: est. 170", "result": "170 Miller Units and 160 Miller Units"},
      {"measurement": "response", "setting": "[2]; parent: est. 170", "result": 85, "unit": "Miller Units"},
      {"measurement": "response", "setting": "[5]; parent: est. 65", "result": 8.5, "unit": "Miller Units"},
      {"measurement": "response", "setting": "[5]; parent: est. 110", "result": 78, "unit": "Miller Units"}
    ]},
    {"substance": "6XHis-PilU (enzyme)", "values": [
      {"measurement": "stoichiometry N", "setting": "[8]", "result": 6}
    ]},
    {"substance": "6xHis-PilU^K134A (enzyme)", "values": [
      {"measurement": "stoichiometry N", "setting": "[9]", "result": 6}
    ]}
  ]
}
